Experimental data from PMC8187382, “The archaeal protein SepF is essential for cell division in Haloferax volcanii” (Nature Communications, 2021).

Target: the molecule itself
Assay: SEC; 500 µl freshly purified SepF-His on Superdex 200 10/300 GL in Buffer A (1.5 M KCl, 100 mM NaCl, 50 mM HEPES, 1 mM DTT, pH 7.5), 0.5 ml/min; gel filtration standard run under the same conditions; no protein eluted at volumes of higher oligomers

B1: SepF-His (H. volcanii SepF expressed in E. coli) (natural protein, Haloferax volcanii, UniProt D4H018 1-118, looked up)
chain: MGIMSKILGGGGSRTTEDYVELDLDDFDTARGDAGLSVHIAEIGGQQDVIAIKDAVYDGNLVIADITRHTTSDSTMEHIIDDLRQVAREVDGDIVQKGDDQIVITPTGISISRQKLNG
notes: SepF of Haloferax volcanii, encoded by hvo_0392, 118 amino acids, 12.6 kDa; sepF amplified from genomic DNA of strain H26 and cloned by FX-cloning; FX-cloning may leave extra residues at the ends; also called purified SepF; Hvo_0392
For B1, the “stoichiometry N” value was 2.
